{
  "source": "patent US20120324600A1",
  "about": "“CONSTITUTIVE SYNTHETIC PLANT PROMOTERS AND METHODS OF USE” (SYNGENTA PARTICIPATIONS AG, priority 2010, published 2012)",
  "system": "transgenic corn events",
  "assay": "Glyphosate phytotoxicity (percent injury) of transgenic corn events carrying promoter-EPSPS cassettes",
  "format": "in vivo",
  "settings": "maize; for efficiency in promoting expression of an operably linked heterologous sequence compared with unmodified cestrum virus promoter: EPSPS gene, glyphosate tolerance",
  "from_the_text": "SEQ ID NO: 8 was synthesized by Gene Art as a SanDI/BamHI fragment then ligated directly into a cloning vector harboring the EPSPS gene (cZmEPSPSct-01) to confer glyphosate tolerance (Terada, et al., (1995) A type I element composed of the hexamer (ACGTCA) and octamer (CGCGGATC) motifs plays a role(s) in meristematic expression of a wheat histone H3 gene in transgenic rice plants. Plant Molecular Biology 27: 17-26). SEQ ID NO: 9 was created by ligation of the xZmH3Cis DNA elements to the prCMP promoter as an NheI fragment such that these elements are 5′ to the TATA-BOX (Brignon, et al., (1993) Nuclease sensitivity and functional analysis of a maize histone H3 gene promoter. Plant Molecular Biology 22: 1007-1015).\nSee Table 9 for glyphosate phytotoxicity, in terms of percent injury. Plants were sprayed with an appropriate amount of glyphosate (i.e. 4× Touchdown®) at the V4 stage and the V8 stage. Percent injury was measured at 7 and 14 days after the V4 stage glyphosate spray, as well as 7 and 14 days after V8 stage glyphosate spray.",
  "data": [
    {"molecule": "SEQ ID NO: 9: synthetic plant promoter for maize, subelements eFMV, e35S, eNOS, prCMP, xZmH3Cis, eTMV; 1294 bp (nucleic acid, synthetic plant promoter, synthetic plant promoter for maize, subelements eFMV, e35S, eNOS, prCMP, xZmH3Cis, eTMV; 1294 bp) DNA: AGCTGCTTGTGGGGACCAGACAAAAAAGGAATGGTGCAGAATTGTTAGGCGCACCTACCAAAAGCATCTTTGCCTTTATTGCAAAGATAAAGCAGATTCCTCTAGTACAAGTGGGGAACAAAATAACGTGGAAAAGAGCTGTCCTGACAGCCCACTCACTAATGCGTATGACGAACGCAGTGACGACCACAAAACTCGAGACTTTTCAACAAAGGGTAATATCCGGAAACCTCCTCGGATTCCATTGCCCAGCTATCTGTCACTTTATTGTGAAGATAGTGGAAAAGGAAGGTGGCTCCTACAAATGCCATCATTGCGATAAAGGAAAGGCTATCGTTGAAGATGCCTCTGCCGACAGTGGTCCCAAAGATGGACCCCCACCCACGAGGAGCATCGTGGAAAAAGAAGACGTTCCAACCACGTCTTCAAAGCAAGTGGATTGATGTGATATCTCCACTGACGTAAGGGATGACGAACAATCCCACTATCCTTCTGCCGGACCCTCATGAGCGGAGAATTAAGGGAGTCACGTTATGACCCCCGCCGATGACGCGGGACAAGCCGTTTTACGTTTGGAACTGACAGAACCGCAACGAAGCTTTGGCAGACAAAGTGGCAGACATACTGTCCCACAAATGAAGATGGAATCTGTAAAAGAAAACGCGTGAAATAATGCGTCTGACAAAGGTTAGGTCGGCTGCCTTTAATCAATACCAAAGTGGTCCCTACCACGATGGAAAAACTGTGCAGTCGGTTTGGCTTTTTCTGACGAACAAATAAGATTCGTGGCCGACAGGTGGGGGTCCACCATGTGAAGGCATCTTCAGACTCCAATAATGGAGCAATGACGTAAGGGCTTACGAAATAAGTAAGGGTAGTTTGGCATATGCTGGTGGCAGAGGGTGTGCTTCCCTGCTTGGGCGGGCACGCTGGGATGGCGAAAATTTTCGGAAGCGCTGGGATGGCGAAAATTTTCGGAAGCGCTGGGCGCTGGCGCGGGCGGCGGACAACTATGGGTCGTTGGATTGGGAATTGGGATGGAGGGCGAGGGTGTCGCTGCTGGCGGGGGTCGATCCGCGTGTTGAGCGATCTGCGAGGATTATGTCCACTCACCCGTCAGTCTATAAATACTTAGCCCCTCCCTCATTGTTAAGGGAGCAAAATCTCAGAGAGATAGTCCTAGAGAGAGAAAGAGAGCAAGTAGCCTAGAAGTGGATCCACCTCGAGTATTTTTACAACAATTACCAACAACAACAAACAACAAACAACATTACAATTACTATTTACAATTACACATGTAAACC", "values": [
      {"measurement": "evidence of HDGS and HDMS", "result": "no evidence of HDGS and HDMS"},
      {"measurement": "efficiency in promoting expression of an operably linked heterologous sequence compared with unmodified cestrum virus promoter", "result": "function at least as well on average as the unmodified cestrum virus promoter"},
      {"measurement": "efficiency in promoting expression of an operably linked heterologous sequence compared with unmodified cestrum virus promoter", "setting": "listed as 9", "result": "as efficient in promoting the expression of an operably linked heterologous sequence as an unmodified cestrum virus promoter"}
    ]},
    {"molecule": "SEQ ID NO: 8: synthetic plant promoter for maize, subelements eFMV, e35S, prTaHisH3, eTMV; 834 bp (nucleic acid, synthetic plant promoter, synthetic plant promoter for maize, subelements eFMV, e35S, prTaHisH3, eTMV; 834 bp) DNA: AGCTGCTTGTGGGGACCAGACAAAAAAGGAATGGTGCAGAATTGTTAGGCGCACCTACCAAAAGCATCTTTGCCTTTATTGCAAAGATAAAGCAGATTCCTCTAGTACAAGTGGGGAACAAAATAACGTGGAAAAGAGCTGTCCTGACAGCCCACTCACTAATGCGTATGACGAACGCAGTGACGACCACAAAACTCGAGACTTTTCAACAAAGGGTAATATCCGGAAACCTCCTCGGATTCCATTGCCCAGCTATCTGTCACTTTATTGTGAAGATAGTGGAAAAGGAAGGTGGCTCCTACAAATGCCATCATTGCGATAAAGGAAAGGCTATCGTTGAAGATGCCTCTGCCGACAGTGGTCCCAAAGATGGACCCCCACCCACGAGGAGCATCGTGGAAAAAGAAGACGTTCCAACCACGTCTTCAAAGCAAGTGGATTGATGTGATATCTCCACTGACGTAAGGGATGACGAACAATCCCACTATCCTTCTGCCGGACCCAAGCTTTCGGCCACGTCACCAATCCGCGGCATTCCTACCCGGATCGCCATCTCGACCGTCCACTCCATCCGCATCCAACGGCAAGTACATGCCTCTCGTCCCCTCCCGAAAAACCAAAACCCAAACCCGCCCGCTCTCTCGGTGCTCCTCCTATTTAACTCCGCCCCGTCCCCTTCTTCCTCCTCACCCCAATCTCCCCAGCCCCCAACCACCAGAGCCTCCTCCTCCCCTCCGGCGCATCGACGACAAGGGATCCACCTCGAGTATTTTTACAACAATTACCAACAACAACAAACAACAAACAACATTACAATTACTATTTACAATTACACATGTAAACC", "values": [
      {"measurement": "evidence of HDGS and HDMS", "result": "no evidence of HDGS and HDMS"},
      {"measurement": "efficiency in promoting expression of an operably linked heterologous sequence compared with unmodified cestrum virus promoter", "result": "function at least as well on average as the unmodified cestrum virus promoter"},
      {"measurement": "efficiency in promoting expression of an operably linked heterologous sequence compared with unmodified cestrum virus promoter", "setting": "listed as 8", "result": "as efficient in promoting the expression of an operably linked heterologous sequence as an unmodified cestrum virus promoter"}
    ]}
  ]
}
